Target: xpo1_mouse Xpo1 (UniProt Q6P5F9)
Chain of UniProt Q6P5F9 (Q6P5F9 whole entry): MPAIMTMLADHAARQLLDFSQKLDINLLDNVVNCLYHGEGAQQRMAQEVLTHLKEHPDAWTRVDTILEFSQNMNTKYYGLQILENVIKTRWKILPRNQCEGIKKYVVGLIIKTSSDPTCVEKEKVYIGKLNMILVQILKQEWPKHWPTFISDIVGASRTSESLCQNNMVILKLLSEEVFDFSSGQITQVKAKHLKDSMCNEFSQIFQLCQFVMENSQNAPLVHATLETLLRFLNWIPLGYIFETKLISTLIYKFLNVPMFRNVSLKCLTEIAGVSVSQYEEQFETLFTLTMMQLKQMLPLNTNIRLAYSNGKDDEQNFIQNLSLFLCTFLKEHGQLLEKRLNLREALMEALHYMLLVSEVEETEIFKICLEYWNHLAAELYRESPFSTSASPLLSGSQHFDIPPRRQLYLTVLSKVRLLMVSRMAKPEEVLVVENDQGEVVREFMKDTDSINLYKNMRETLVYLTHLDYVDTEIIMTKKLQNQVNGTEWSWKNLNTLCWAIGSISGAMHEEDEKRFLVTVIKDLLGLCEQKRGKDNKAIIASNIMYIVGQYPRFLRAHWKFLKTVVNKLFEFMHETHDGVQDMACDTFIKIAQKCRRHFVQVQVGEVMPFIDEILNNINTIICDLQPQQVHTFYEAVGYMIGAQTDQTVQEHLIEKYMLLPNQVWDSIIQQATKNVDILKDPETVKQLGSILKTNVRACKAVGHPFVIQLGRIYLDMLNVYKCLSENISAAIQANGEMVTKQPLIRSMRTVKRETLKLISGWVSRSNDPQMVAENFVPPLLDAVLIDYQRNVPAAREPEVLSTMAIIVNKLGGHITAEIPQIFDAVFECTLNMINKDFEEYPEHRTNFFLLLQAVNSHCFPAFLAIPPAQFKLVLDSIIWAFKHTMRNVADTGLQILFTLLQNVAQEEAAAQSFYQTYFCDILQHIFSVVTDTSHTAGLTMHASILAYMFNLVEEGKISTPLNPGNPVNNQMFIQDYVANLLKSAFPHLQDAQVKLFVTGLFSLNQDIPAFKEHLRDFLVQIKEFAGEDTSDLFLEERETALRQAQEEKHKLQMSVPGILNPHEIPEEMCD

Substance: cAMP-dependent protein kinase inhibitor alpha (Homo sapiens) (from UniProt P61925) S35L
- effect of a mutation on the interaction: increasing interaction

Reference: IntAct's records for PubMed 20972448
